Measured values: patent EP4631959A2, “NOVEL MINIGASTRIN-DERIVED CHOLECYSTOKININ 2 RECEPTOR BINDING MOLECULES FOR IMAGING AND TARGETED RADIOTHERAPY” (priority 2022, dated 2024)
Read-outs that look alike come from different tables or passages of the source. Starred links: 1 amine or outer side, 2 acyl side, 3 side chain; linkers in the order of their positions; H or OH if unused. Non-standard residues stand in square brackets, D forms with d. Residues, ends and D or L forms follow the SMILES beside them. *: point of attachment. DOTAGA = O=C(O)CN1CCN(CC(=O)O)CCN(C(CCC(=O)*)C(=O)O)CCN(CC(=O)O)CC1; Benzoyl(4-SiFtBu2) = CC(C)(C)[Si](F)(c1ccc(C(=O)*)cc1)C(C)(C)C; DOTA = O=C(O)CN1CCN(CC(=O)O)CCN(CC(=O)*)CCN(CC(=O)O)CC1; PEG12 = NCCOCCOCCOCCOCCOCCOCCOCCOCCOCCOCCOCCOCCC(=O)O; d(γGlu) = O=C(O)[C@@H](CCC(=O)[*:2])N[*:1]; PEG8 = NCCOCCOCCOCCOCCOCCOCCOCCOCCC(=O)O; 1Nal = N[C@@H](Cc1cccc2ccccc12)C(=O)O; PEG6 = NCCOCCOCCOCCOCCOCCOCCC(=O)O; Hyp = O=C(O)[C@@H]1C[C@@H](O)CN1; dCit = NC(=O)NCCC[C@@H](N)C(=O)O; PEG5 = NCCOCCOCCOCCOCCOCCC(=O)O; NMeNle = CCCC[C@H](NC)C(=O)O; PEG4 = NCCOCCOCCOCCOCCC(=O)O; Nle = CCCC[C@H](N)C(=O)O; dDap = NC[C@@H](N)C(=O)O

How the values were obtained:
CCK-2R = biological target: T1, CCK-2R (Rattus norvegicus, UniProt P30553); assay: Determination of IC50: CCK-2R affinity on AR4-2J cells, competition with [^177Lu]Lu-DOTA-PP-F11N; assay type: binding; settings: AR4-2J cells
T1 construct: The CCK-2R expressing rat pancreatic tumor cells AR4-2J; host or cells: AR4-2J rat pancreatic tumor cells
T1 sequence (P30553 1-452): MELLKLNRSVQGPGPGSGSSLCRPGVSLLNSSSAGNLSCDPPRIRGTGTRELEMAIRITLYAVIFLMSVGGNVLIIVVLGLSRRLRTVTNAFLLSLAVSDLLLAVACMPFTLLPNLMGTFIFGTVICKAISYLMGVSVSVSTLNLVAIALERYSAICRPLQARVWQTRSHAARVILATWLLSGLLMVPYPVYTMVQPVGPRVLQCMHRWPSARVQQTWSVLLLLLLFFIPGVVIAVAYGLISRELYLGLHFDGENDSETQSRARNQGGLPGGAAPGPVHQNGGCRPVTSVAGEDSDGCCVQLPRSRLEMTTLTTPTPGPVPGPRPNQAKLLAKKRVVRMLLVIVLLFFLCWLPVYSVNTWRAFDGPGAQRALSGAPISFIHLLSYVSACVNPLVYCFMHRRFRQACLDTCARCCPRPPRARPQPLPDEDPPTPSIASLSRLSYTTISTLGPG
In short: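 Competitive displacement of 0.3 pmol/well [177Lu]Lu-DOTA-PP-F11N by compounds (10^-10 to 10^-4 M) on AR4-2J cells in BSA-supplemented medium, 3 h at 37 °C. Free label was collected from medium plus PBS rinse, and cell-bound label was recovered with 1 M NaOH, both measured by γ-counter. Each IC50 was determined twice, in triplicate.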

[1] = n-Octanol-PBS distribution coefficient (logD7.4); assay type: physicochemical; settings: pH = 7.4, ^177Lu-labeled
Method: Approximately 1 MBq of the labeled tracer was dissolved in 1 mL of a 1/1 mixture (v/v) of phosphate buffered saline (PBS, pH = 7.4) and n-octanol in an Eppendorf tube (1.5 mL). After vigorous mixing of the suspension for 3 min at rt, the vial was centrifuged at 9,000 rpm for 5 min (Biofuge 15, Heraeus Sepatech, Osterode, Germany) and 200 µL aliquots of both layers were measured in a γ-counter. The experiment was repeated at least five times.

[2] = biological target: T2, Human serum albumin (HSA) (Homo sapiens, UniProt P02768); assay: Determination of HSA binding on a Chiralpak HSA column; assay type: in vitro ADME; settings: Tab. 8; metal not stated (Fig. 18: ^natLu)
T2 construct: purchased Daicel, Tokyo, Japan H13H-2433
T2 sequence (P02768 25-609): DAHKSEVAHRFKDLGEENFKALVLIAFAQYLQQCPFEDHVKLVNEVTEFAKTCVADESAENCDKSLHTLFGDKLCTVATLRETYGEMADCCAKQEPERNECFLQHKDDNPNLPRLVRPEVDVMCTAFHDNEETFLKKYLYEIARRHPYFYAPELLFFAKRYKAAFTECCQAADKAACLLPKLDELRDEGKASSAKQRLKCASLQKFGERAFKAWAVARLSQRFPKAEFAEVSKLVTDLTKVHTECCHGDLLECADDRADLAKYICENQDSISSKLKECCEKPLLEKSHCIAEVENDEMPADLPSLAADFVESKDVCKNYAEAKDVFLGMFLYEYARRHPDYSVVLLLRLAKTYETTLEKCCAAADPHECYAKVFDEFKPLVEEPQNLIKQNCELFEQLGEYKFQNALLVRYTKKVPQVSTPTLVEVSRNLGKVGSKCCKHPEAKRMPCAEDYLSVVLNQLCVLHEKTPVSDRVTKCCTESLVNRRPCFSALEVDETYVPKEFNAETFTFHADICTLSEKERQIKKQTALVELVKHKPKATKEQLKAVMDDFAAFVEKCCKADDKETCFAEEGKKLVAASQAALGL
Method: Human serum albumin (HSA) binding of the CCK-2R-targeted compounds was determined as reported by Valko et al., using a Chiralpak HSA column (50 x 3 mm, 5 µm, H13H-2433, Daicel, Tokyo, Japan) at a constant flow rate of 0.5 mL/min at rt. Therefore, an aq. solution of NH4OAc (pH = 6.9, 50 mM) as mobile phase A and isopropanol as mobile phase B were freshly prepared. In order to calibrate the column prior to the experiments, the retention times of nine reference substances with a HSA binding in the range of 13 to 99% were determined using a gradient of 100% A (0 to 3 min), followed by 80% A (3 to 40 min). Furthermore, all substances tested, were dissolved in a mixture (1/1, v/v) of A and B reaching a final concentration of 0.5 mg/mL. The HSA binding of all rhCCK ligands tested, was determined using the same gradient as for the calibration probes. The non-linear regression of the calibration experiments and the CCK-2R ligands (Fig. 29) was established using the OriginPro 2016G software (Northampton, United States).

[3] = ^natLu-labeled, read-out: IC50 [nM] (n = 3), ^natLu-labeled
[4] = read-out: IC50 [nM] (n = 3), ^natGa-labeled, ^natGa-labeled
[5] = read-out: IC50 [nM] (n = 3), ^natLu-labeled, ^natLu-labeled

SMILES	IC50 (CCK-2R; [3])	IC50 (CCK-2R; [4])	logD7.4 (n ≥ 5), ^177Lu-labeled [1]	HSA binding [%] [2]	IC50 (CCK-2R; [5])
CCCC[C@@H](C(=O)N[C@@H](CC(=O)O)C(=O)N[C@@H](Cc1cccc2ccccc12)C(N)=O)N(C)C(=O)[C@H](Cc1c[nH]c2ccccc12)NC(=O)CCOCCOCCOCCOCCNC(=O)CC[C@@H](NC(=O)CCOCCOCCOCCOCCOCCNC(=O)[C@@H](CNC(=O)c1ccc([Si](F)(C(C)(C)C)C(C)(C)C)cc1)NC(=O)CN1CCN(CC(=O)O)CCN(CC(=O)O)CCN(CC(=O)O)CC1)C(=O)O [DOTA-rhCCK-67, DOTA-dap(SiFA)-(PEG)4-γ-glu-(PEG)3-Trp-(N-Me)Nle-Asp-1-Nal-NH2] ({DOTA}-[dDap](Benzoyl(4-SiFtBu2))[PEG5][d(γGlu)][PEG4]W[NMeNle]D[1Nal]-NH2)	13 ± 1.1 nM	49.5 ± 3.7 nM	−1.05 ± 0.09	92.9%	
CCCC[C@@H](C(=O)N[C@@H](CC(=O)O)C(=O)N[C@@H](Cc1cccc2ccccc12)C(N)=O)N(C)C(=O)[C@H](Cc1c[nH]c2ccccc12)NC(=O)CCOCCOCCOCCOCCNC(=O)CC[C@@H](NC(=O)CCOCCOCCOCCOCCOCCOCCOCCOCCNC(=O)CC[C@@H](NC(=O)[C@@H](CNC(=O)c1ccc([Si](F)(C(C)(C)C)C(C)(C)C)cc1)NC(=O)CN1CCN(CC(=O)O)CCN(CC(=O)O)CCN(CC(=O)O)CC1)C(=O)O)C(=O)O [DOTA-rhCCK-70, DOTA-dap(SiFA)-γ-glu-(PEG7-γ-glu-(PEG)3-Trp-(N-Me)Nle-Asp-1-Nal-NH2]	12.6 ± 2 nM		−1.67 ± 0.08	89.3%	
CCCC[C@@H](C(=O)N[C@@H](CC(=O)O)C(=O)N[C@@H](Cc1cccc2ccccc12)C(N)=O)N(C)C(=O)[C@H](Cc1c[nH]c2ccccc12)NC(=O)CCOCCOCCOCCOCCNC(=O)CC[C@@H](NC(=O)CCOCCOCCOCCOCCOCCNC(=O)CC[C@@H](NC(=O)[C@@H](CNC(=O)C[N+](C)(C)Cc1ccc([Si](F)(C(C)(C)C)C(C)(C)C)cc1)NC(=O)CN1CCN(CC(=O)O)CCN(CC(=O)O)CCN(CC(=O)O)CC1)C(=O)O)C(=O)O [DOTA-rhCCK-91, DOTA-dap(SiFAlin)-γ-glu-(PEG)4-γ-glu-(PEG)3-Trp-(N-Me)Nle-Asp-1-Nal-NH2]	8.56 ± 0.7 nM	8.24 ± 1.6 nM	−1.66 ± 0.08	90.0%	
CCCC[C@@H](C(=O)N[C@@H](CC(=O)O)C(=O)N[C@@H](Cc1cccc2ccccc12)C(N)=O)N(C)C(=O)[C@H](Cc1c[nH]c2ccccc12)NC(=O)CCOCCOCCOCCOCCNC(=O)CC[C@@H](NC(=O)CCOCCOCCOCCOCCOCCOCCOCCOCCNC(=O)[C@@H](CNC(=O)c1ccc([Si](F)(C(C)(C)C)C(C)(C)C)cc1)NC(=O)CN1CCN(CC(=O)O)CCN(CC(=O)O)CCN(CC(=O)O)CC1)C(=O)O [DOTA-rhCCK-73, DOTA-dap(SiFA)-(PEG)7-γ-glu-(PEG)3-Trp-(N-Me)Nle-Asp-1-Nal-NH2] ({DOTA}-[dDap](Benzoyl(4-SiFtBu2))[PEG8][d(γGlu)][PEG4]W[NMeNle]D[1Nal]-NH2)	15.6 ± 0.7 nM		−1.02 ± 0.06	90.4%	
CCCC[C@@H](C(=O)N[C@@H](CC(=O)O)C(=O)N[C@@H](Cc1cccc2ccccc12)C(N)=O)N(C)C(=O)[C@H](Cc1c[nH]c2ccccc12)NC(=O)CCOCCOCCOCCOCCNC(=O)CC[C@@H](NC(=O)[C@@H]1C[C@@H](O)CN1C(=O)[C@@H]1C[C@@H](O)CN1C(=O)[C@@H]1C[C@@H](O)CN1C(=O)[C@@H](CCCNC(N)=O)NC(=O)[C@@H](CCCNC(N)=O)NC(=O)[C@@H](CCCNC(N)=O)NC(=O)CC[C@@H](NC(=O)[C@@H](CNC(=O)c1ccc([Si](F)(C(C)(C)C)C(C)(C)C)cc1)NC(=O)CN1CCN(CC(=O)O)CCN(CC(=O)O)CCN(CC(=O)O)CC1)C(=O)O)C(=O)O [DOTA-rhCCK-85, DOTA-dap(SiFA)-γ-glu-(cit)3-(Hyp)3-γ-glu-(PEG)3-Trp-(N-Me)Nle-Asp-1-Nal-NH2] ({DOTA}-[dDap](Benzoyl(4-SiFtBu2))[d(γGlu)][dCit][dCit][dCit][Hyp][Hyp][Hyp][d(γGlu)][PEG4]W[NMeNle]D[1Nal]-NH2)			−1.95 ± 0.09	90.3%	12.9 ± 0.3 nM
CCCC[C@@H](C(=O)N[C@@H](CC(=O)O)C(=O)N[C@@H](Cc1cccc2ccccc12)C(N)=O)N(C)C(=O)[C@H](Cc1c[nH]c2ccccc12)NC(=O)CCOCCOCCOCCOCCNC(=O)CC[C@@H](NC(=O)CCOCCOCCOCCOCCOCCOCCOCCOCCNC(=O)CC[C@@H](NC(=O)[C@@H](CNC(=O)c1cc(C(=O)O)cc([Si](F)(C(C)(C)C)C(C)(C)C)c1)NC(=O)CN1CCN(CC(=O)O)CCN(CC(=O)O)CCN(CC(=O)O)CC1)C(=O)O)C(=O)O [DOTA-rhCCK-72, DOTA-dap(SiFA-ipa)-γ-glu-(PEG)7-γ-glu-(PEG)3-Trp-(N-Me)Nle-Asp-1-Nal-NH2]	52.3 ± 6.2 nM		−2.32 ± 0.03	89.3%	
CCCC[C@H](NC(=O)[C@H](Cc1c[nH]c2ccccc12)NC(=O)CNC(=O)[C@H](Cc1ccc(O)cc1)NC(=O)[C@H](C)NC(=O)CC[C@@H](NC(=O)CC[C@@H](NC(=O)CC[C@@H](NC(=O)CC[C@@H](NC(=O)[C@@H](CNC(=O)c1ccc([Si](F)(C(C)(C)C)C(C)(C)C)cc1)NC(=O)CC[C@@H](NC(=O)CC[C@@H](NC(=O)CC[C@@H](NC(=O)CC[C@@H](NC(=O)CCC(C(=O)O)N1CCN(CC(=O)O)CCN(CC(=O)O)CCN(CC(=O)O)CC1)C(=O)O)C(=O)O)C(=O)O)C(=O)O)C(=O)O)C(=O)O)C(=O)O)C(=O)O)C(=O)N[C@@H](CC(=O)O)C(=O)N[C@@H](Cc1ccccc1)C(N)=O (some centres unmarked) [DOTAGA-MG-SiFA-25, DOTAGA-(γ-glu)3-[dap(SiFA)^2]γ-F11N] ({DOTAGA-d(γGlu)-d(γGlu)-d(γGlu)-d(γGlu)}-[dDap](Benzoyl(4-SiFtBu2))[d(γGlu)][d(γGlu)][d(γGlu)][d(γGlu)]AYGW[Nle]DF-NH2)			−2.74 ± 0.04		62.9 ± 8.1 nM
CCCC[C@@H](C(=O)N[C@@H](CC(=O)O)C(=O)N[C@@H](Cc1cccc2ccccc12)C(N)=O)N(C)C(=O)[C@H](Cc1c[nH]c2ccccc12)NC(=O)CCOCCOCCOCCOCCOCCOCCOCCOCCOCCOCCOCCOCCNC(=O)CC[C@@H](NC(=O)CN1CCN(CC(=O)O)CCN(CC(=O)O)CCN(CC(=O)O)CC1)C(=O)O [DOTA-CCK-81, DOTA-γ-glu-(PEG)11-Trp-(N-Me)Nle-Asp-1-Nal-NH2] ({DOTA-d(γGlu)-PEG12}-W[NMeNle]D[1Nal]-NH2)	6.3 ± 0.7 nM		−2.47 ± 0.10		
CCCC[C@@H](C(=O)N[C@@H](CC(=O)O)C(=O)N[C@@H](Cc1cccc2ccccc12)C(N)=O)N(C)C(=O)[C@H](Cc1c[nH]c2ccccc12)NC(=O)CCOCCOCCOCCOCCOCCOCCNC(=O)CC[C@@H](NC(=O)CN1CCN(CC(=O)O)CCN(CC(=O)O)CCN(CC(=O)O)CC1)C(=O)O [DOTA-CCK-79, DOTA-γ-glu-(PEG)5-Trp-(N-Me)Nle-Asp-1-Nal-NH2] ({DOTA-d(γGlu)-PEG6}-W[NMeNle]D[1Nal]-NH2)	7 ± 0.6 nM		−2.59 ± 0.05		
